Measurements: the supplement of paper PMC9112550, “Optimization of the antimicrobial peptide Bac7 by deep mutational scanning” (BMC Biology, 2022)

System: Escherichia coli TOP10
Experiment: shrunken log2 fold change of peptide-encoding DNA abundance (4.5 h post-induction vs induction); higher = less antimicrobial activity (less host growth inhibition)
Settings: time post-induction: 4.5 h; library: site-saturation at positions 5, 18, 19, 20
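Note: peptides expressed intracellularly from a pBAD plasmid library in pooled LB shake-flask culture, induced with 0.3% L-arabinose, DNA abundance read by NGS, three biological replicates, DESeq2 with apeglm shrinkage.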

Sequence | shrunken log2 fold change
RRIRRRPPRLPRPRPRPDAAPRP | 1.44
RRIRLRPPRLPRPRPRPAQIPRP | 0.214
RRIRCRPPRLPRPRPRPCFNPRP | 0.713
RRIRWRPPRLPRPRPRPMMRPRP | 1.08
RRIRERPPRLPRPRPRPQARPRP | -0.0863
RRIRTRPPRLPRPRPRPTFVPRP | -0.262
RRIRCRPPRLPRPRPRPWSYPRP | -0.441
RRIRGRPPRLPRPRPRPVFQPRP | 0.519
RRIRARPPRLPRPRPRPMAVPRP | 0.209
RRIRERPPRLPRPRPRPVREPRP | 0.242
RRIRTRPPRLPRPRPRPVFQPRP | -0.0322
RRIRRRPPRLPRPRPRPSDFPRP | -0.116
RRIRCRPPRLPRPRPRPTMAPRP | -0.0611
RRIRVRPPRLPRPRPRPYTEPRP | -0.42
RRIRKRPPRLPRPRPRPDSWPRP | 0.0425
RRIRYRPPRLPRPRPRPYYDPRP | -0.15
RRIRMRPPRLPRPRPRPFNKPRP | -0.52
RRIRKRPPRLPRPRPRPMPEPRP | -0.0371
RRIRRRPPRLPRPRPRPNLPPRP | 0.0123
RRIRNRPPRLPRPRPRPWEAPRP | -0.173
RRIRMRPPRLPRPRPRPNPLPRP | 0.567
RRIRMRPPRLPRPRPRPECCPRP | 3.54
RRIRARPPRLPRPRPRPIMDPRP | -0.0229
RRIRFRPPRLPRPRPRPNRPPRP | -0.0705
RRIRDRPPRLPRPRPRPAVHPRP | 0.16

Sequence | shrunken log2 fold change
RRIRERPPRLPRPRPRPHEKPRP | -0.00663
RRIRCRPPRLPRPRPRPSCHPRP | -0.301
RRIRCRPPRLPRPRPRPQCAPRP | 0.166
RRIRSRPPRLPRPRPRPCYAPRP | -0.478
RRIRPRPPRLPRPRPRPTYCPRP | 0.00402
RRIRERPPRLPRPRPRPTLKPRP | -0.197
RRIRKRPPRLPRPRPRPAERPRP | 0.123
RRIRHRPPRLPRPRPRPVDMPRP | -0.201
RRIRVRPPRLPRPRPRPPGTPRP | 0.273
RRIRKRPPRLPRPRPRPMSWPRP | 5.25
RRIRSRPPRLPRPRPRPWYNPRP | -0.502
RRIRQRPPRLPRPRPRPTKLPRP | -0.0369
RRIRKRPPRLPRPRPRPRFRPRP | 0.276
RRIRWRPPRLPRPRPRPNQGPRP | 0.0374
RRIRRRPPRLPRPRPRPILFPRP | -0.026
RRIRFRPPRLPRPRPRPMCCPRP | -0.429
RRIRVRPPRLPRPRPRPEVHPRP | -0.0892
RRIRDRPPRLPRPRPRPKFYPRP | 0.0101
RRIRRRPPRLPRPRPRPHYCPRP | -0.356
RRIRSRPPRLPRPRPRPNFDPRP | 0.221
RRIRARPPRLPRPRPRPCQYPRP | -0.411
RRIRFRPPRLPRPRPRPNHEPRP | -0.56
RRIRWRPPRLPRPRPRPISEPRP | 0.00628
RRIRDRPPRLPRPRPRPQCGPRP | 0.192
RRIRCRPPRLPRPRPRPNACPRP | -0.0874

Sequence | shrunken log2 fold change
RRIRSRPPRLPRPRPRPMATPRP | 0.0201
RRIRMRPPRLPRPRPRPITLPRP | -0.521
RRIRRRPPRLPRPRPRPKHIPRP | 0.0894
RRIRNRPPRLPRPRPRPYRHPRP | -0.01
RRIRYRPPRLPRPRPRPIKEPRP | 0.0062
RRIRKRPPRLPRPRPRPWGGPRP | 0.407
RRIRSRPPRLPRPRPRPNVHPRP | -0.312
RRIRRRPPRLPRPRPRPIWYPRP | 0.00744
RRIRWRPPRLPRPRPRPDHCPRP | -0.00992
RRIRKRPPRLPRPRPRPGERPRP | -0.116
RRIRNRPPRLPRPRPRPINWPRP | -0.133
RRIRWRPPRLPRPRPRPRDSPRP | -0.299
RRIRSRPPRLPRPRPRPSAFPRP | -0.0159
RRIRLRPPRLPRPRPRPNKYPRP | -0.742
RRIRIRPPRLPRPRPRPVGCPRP | 0.166
RRIRCRPPRLPRPRPRPDTMPRP | 0.00262
RRIRDRPPRLPRPRPRPIGWPRP | -0.0185
RRIRRRPPRLPRPRPRPFMLPRP | 0.0692
RRIRFRPPRLPRPRPRPQGEPRP | 0.00441
RRIRIRPPRLPRPRPRPWAVPRP | -0.203
RRIRERPPRLPRPRPRPPHHPRP | -0.123
RRIRLRPPRLPRPRPRPKMTPRP | -0.181
RRIRIRPPRLPRPRPRPGFHPRP | 0.876
RRIRHRPPRLPRPRPRPGGCPRP | 0.165
RRIRWRPPRLPRPRPRPFFHPRP | -0.194

Sequence | shrunken log2 fold change
RRIRRRPPRLPRPRPRPGQIPRP | 0.0802
RRIRHRPPRLPRPRPRPFNYPRP | 0.0485
RRIRKRPPRLPRPRPRPDPHPRP | -0.0362
RRIRYRPPRLPRPRPRPTLPPRP | -0.135
RRIRHRPPRLPRPRPRPDCPPRP | 0.0615
RRIRRRPPRLPRPRPRPEVNPRP | -0.0845
RRIRFRPPRLPRPRPRPDYPPRP | -0.111
RRIRDRPPRLPRPRPRPMIGPRP | 0.266
RRIRYRPPRLPRPRPRPQCHPRP | -0.198
RRIRWRPPRLPRPRPRPWCLPRP | -0.334
RRIRYRPPRLPRPRPRPSFWPRP | -0.122
RRIRQRPPRLPRPRPRPNVPPRP | -0.0402
RRIRMRPPRLPRPRPRPQREPRP | 0.203
RRIRYRPPRLPRPRPRPPNCPRP | -0.236
RRIRCRPPRLPRPRPRPFPHPRP | -0.175
RRIRKRPPRLPRPRPRPPKMPRP | 0.383
RRIRMRPPRLPRPRPRPGGTPRP | 0.722
RRIRERPPRLPRPRPRPITFPRP | -0.338
RRIRYRPPRLPRPRPRPSTRPRP | -0.367
RRIRLRPPRLPRPRPRPEGPPRP | 0.539
RRIRRRPPRLPRPRPRPAPKPRP | 0.905
RRIRCRPPRLPRPRPRPAPPPRP | 0.743
RRIRTRPPRLPRPRPRPTVIPRP | -0.17
RRIRHRPPRLPRPRPRPQACPRP | -0.208
RRIRNRPPRLPRPRPRPQMRPRP | 0.308

Sequence | shrunken log2 fold change
RRIRWRPPRLPRPRPRPDMAPRP | 0.204
RRIRPRPPRLPRPRPRPWFQPRP | -0.21
RRIRIRPPRLPRPRPRPRWNPRP | -0.249
RRIRQRPPRLPRPRPRPASKPRP | 0.0503
RRIRTRPPRLPRPRPRPWDPPRP | 0.102
RRIRYRPPRLPRPRPRPIMTPRP | -0.991
RRIRGRPPRLPRPRPRPSHNPRP | -0.189
RRIRTRPPRLPRPRPRPDRLPRP | 0.0294
RRIRDRPPRLPRPRPRPCGCPRP | 0.317
RRIRLRPPRLPRPRPRPMGEPRP | 0.136
RRIRNRPPRLPRPRPRPKVVPRP | 0.0279
RRIRCRPPRLPRPRPRPEHSPRP | 0.0871
RRIRGRPPRLPRPRPRPEGSPRP | 1.28
RRIRKRPPRLPRPRPRPYGNPRP | -0.135
RRIRDRPPRLPRPRPRPSCTPRP | -0.244
RRIRCRPPRLPRPRPRPPSSPRP | -0.0857
RRIRARPPRLPRPRPRPKGKPRP | 1.12
RRIRCRPPRLPRPRPRPGEHPRP | -0.0986
RRIRMRPPRLPRPRPRPNMMPRP | -0.0235
RRIRLRPPRLPRPRPRPGMDPRP | 0.126
RRIRVRPPRLPRPRPRPQNPPRP | -0.396
RRIRFRPPRLPRPRPRPWIHPRP | -0.804
RRIRDRPPRLPRPRPRPEVGPRP | 0.00896
RRIRHRPPRLPRPRPRPGHGPRP | 0.0264
RRIRWRPPRLPRPRPRPFKQPRP | -0.104
